Assay results as given in paper PMC7550704 (Molecular Biology of the Cell, 2020).

Biological target: T1, Sgo1^1–150-His6-MBP (X. laevis, UniProt Q4KLP8 1-150)
T1 sequence (looked up): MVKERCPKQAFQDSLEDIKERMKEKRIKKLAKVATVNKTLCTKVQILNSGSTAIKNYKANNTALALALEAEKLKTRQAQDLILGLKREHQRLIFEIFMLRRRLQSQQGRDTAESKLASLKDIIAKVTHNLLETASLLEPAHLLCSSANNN
Test: supernatant depletion

- Kd: 10 ± 1.6 µM
B1: GST-Borealin-2^216–296 (domain or fragment)
chain: not shown
